In patent US20260226190A1 (CITY OF HOPE, published 2026):
Numbering of substitutions follows the chain as printed. Names may count otherwise.

What was measured:
[1] = biological target: T1, Recombinant human PSCA-mouse Fc fusion protein (human; mouse, UniProt O43653 12-83, limits assumed); assay: ELISA saturation binding on immobilized hPSCA-mFc, one site-specific binding fit (EC50=Kd), n=3
T1 construct: Those marks are not visible here; also called hPSCA-mFc; human PSCA-murine Fc fusion protein; not shown: mouse Fc
T1 sequence: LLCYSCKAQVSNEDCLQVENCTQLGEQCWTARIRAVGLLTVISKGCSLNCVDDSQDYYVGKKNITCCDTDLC
Protocol: (§1) Specificity and affinity of antigen binding was further evaluated by performing saturation binding on immobilized antigen in ELISA. Recombinant human PSCA-mouse Fc fusion protein (hPSCA-mFc, produced in house) was immobilized (1 μg/mL, 100 µL/well in PBS overnight at 4° C.). Serial dilutions of anti-PSCA scFvFc's ([…]) were incubated for 1 h at RT and after washing bound antibody fragments were detected using goat anti-human IgG-Fc-AP antibody (1:10,000) and pNPP substrate (alkaline phosphatase yellow, liquid substrate, Sigma-Aldrich P7998). The enzymatic reaction was stopped using 50 μL 2M NaOH and absorbance was red at 405 nm in an SpectraMax M2 microplane reader. Specific binding was fitted using the “one site-specific binding” equation to determine the Kd (ligand concentration that binds half the antigen sites at equilibrium) and Bₘₐₓ (maximum number of binding sites).

[2] = biological target: T2, Human prostate stem cell antigen (PSCA) expressed on RM9-hPSCA murine prostate cancer cells (human, UniProt O43653 12-83); assay: flow cytometry saturation binding on RM9-hPSCA cells, one-site specific binding fit, four independent experiments
T2 construct: RM9 cells transduced with human PSCA; also called RM9-hPSCA cells
T2 sequence: T1 sequence
Description: (§2) The resulting saturation binding curves were fitted (one-site specific binding, GraphPad Prism) to determine Kd and Bₘₐₓ from four independent experiments. […] (FIG. 6)

[3] = biological target: T2, Human prostate stem cell antigen (PSCA) …; assay: saturation binding on PSCA-expressing cells
Description: as §2
Two novel anti-PSCA scFv-Fc variants (A2SM, A2aG) were designed, produced, and purified (FIG. 1). SDS-PAGE and SEC analysis confirmed purity and dimeric self-assembly. […] A2SM was successfully radiolabeled with ⁸⁹Zr (efficiency: >90%, purity >99%, n=2) resulting in a specific activity of ~0.17 MBq/μg (FIG. 2). […] Therefore, the novel A2SM could deliver a higher cytotoxic dose to the tumor while the liver remains the dose-limiting organ.

BSA = biological target: T3, BSA (UniProt P02769 25-607); assay: ELISA, BSA-coated control wells
T3 construct: Control coating in the ELISA; also called bovine serum albumin (control coating)
T3 sequence (P02769 25-607 limits assumed): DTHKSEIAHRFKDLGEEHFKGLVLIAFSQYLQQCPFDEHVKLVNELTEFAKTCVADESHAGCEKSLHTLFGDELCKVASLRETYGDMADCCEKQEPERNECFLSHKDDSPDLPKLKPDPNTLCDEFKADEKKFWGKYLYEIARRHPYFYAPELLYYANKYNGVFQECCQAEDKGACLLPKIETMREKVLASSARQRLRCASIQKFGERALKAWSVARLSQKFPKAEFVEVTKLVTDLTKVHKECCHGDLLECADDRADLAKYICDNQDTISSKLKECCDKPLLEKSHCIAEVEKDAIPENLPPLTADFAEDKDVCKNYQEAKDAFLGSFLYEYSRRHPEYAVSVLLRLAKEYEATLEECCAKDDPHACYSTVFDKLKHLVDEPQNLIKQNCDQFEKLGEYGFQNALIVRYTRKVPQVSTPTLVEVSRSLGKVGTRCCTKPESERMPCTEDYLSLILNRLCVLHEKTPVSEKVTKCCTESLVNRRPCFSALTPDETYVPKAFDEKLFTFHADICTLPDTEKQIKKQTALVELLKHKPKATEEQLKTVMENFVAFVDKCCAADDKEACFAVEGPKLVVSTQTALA
Protocol: as §1
The purified proteins were tested for specific binding to recombinant antigen by ELISA on immobilized human PSCA-mouse Fc protein. Dose-dependent binding was detected for wells coated with hPSCA-mFc and no non-specific binding was detected in BSA coated control wells.

[4] = biological target: T1, Recombinant human PSCA-mouse Fc fusion …; assay: ELISA saturation binding on hPSCA-mFc (value given for the 'previous' variant)

B1: A2scFv-Fc2 SM (anti-PSCA A2 scFv-Fc2 single mutant, H310A, with K322A) (Fc fusion)
chain: EVQLVESGGGLVQPGGSLRLSCAASGFNIKDYYIHWVRQAPGKGLEWVAWIDPEYGDSEFVPKFQGRATMSADTSKNTAYLQMNSLRAEDTAVYYCKTGGFWGRGTLVTVSSGGGGSGGGGSGGSAQDIQLTQSPSSLSASVGDRVTITCSASSSVRFIHWYQQKPGKAPKRLIYDTSKLASGVPSRFSGSGSGTDFTLTISSLQPEDFATYYCQQWGSSPFTFGQGTKVEIKVECPPCPAPPVAGPSVFLFPPKPKDTLMISRTPEVTCVVVDVSHEDPEVQFNWYVDGMEVHNAKTKPREEQFNSTFRVVSVLTVVAQDWLNGKEYKCAVSNKGLPAPIEKTISKTKGQPREPQVYTLPPSREEMTKNQVSLTCLVKGFYPSDIAVEWESNGQPENNYKTTPPMLDSDGSFFLYSKLTVDKSRWQQGNVFSCSVMHEALHNHYTQKSLSLSPGK
notes: Homodimeric scFv-Fc of about 110 kDa, glycosylated, made in FreeStyle 293-F cells; I could not check whether that entry includes a leader peptide from the pSecTag2A vector; also called A2SM; A2scFv-Fc2-SM w/K322A
Binder B1 has a Kd [1] of 0.59 nM, a Kd [2] of 3.74 nM and a Kd [3] of 3.3 nM. B1: no binding (BSA).

B2: A2scFv-Fc2 DM (anti-PSCA A2 scFv-Fc2 double mutant, H310A/H435Q) (Fc fusion)
chain: B1 chain with A331K, H444Q
For B2, the Kd [4] was 0.8 nM.

B3: A2scFv-Fc2 DMaG (anti-PSCA A2 scFv-Fc2 double mutant aglycosylated, H310A/H435Q, N297Q, with K322A) (Fc fusion)
chain: B1 chain with N306Q, H444Q
notes: I could not check whether that entry includes a leader peptide; also called A2DMaG; A2scFv-Fc2-DMaG w/K322A
Work on B3 yielded a Kd [1] of 0.8 nM, a Kd [2] of 3.28 nM and a Kd [3] of 3.1 nM. B3: no binding (BSA).

B4: A2scFv-Fc2 (anti-PSCA A2 scFv-Fc2 without FcRn-site mutations) (Fc fusion)
chain: B1 chain with A319H, A331K
notes: also called A2Fc2
B4 showed a Kd [4] of 0.5 nM.
